Test results from the nanobody polyreactivity screen of Harvey et al. (2022).

Assay: yeast display, Sf9 membrane polyspecificity reagent, FACS + sequencing; frameworks hold sequencing errors
Summary of the method: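 Galactose induction of a Saccharomyces cerevisiae BJ5465 synthetic nanobody display library ran 36–48 hours. The cells were then stained for 1 hour at 4 °C with 10% biotinylated, detergent-solubilized Sf9 membrane reagent, pulled down on streptavidin microbeads and FACS-sorted into low and high (top ~1%) gates on expression and reagent-binding fluorescence. Labels for polyreactivity follow the gate of origin.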

QVQLLESGGGLVQAGVSLRLSCAASGRIFPYNAMGRYRQAAGKVREFVAAIYYSGGRTYYADSVKGRFTITRDNAKNTVYIQMNSLKPEDTAVYFCDISRYDYTKTEGGYWGQGTQVTVSS
polyreactivity (PSR sort gate): low polyreactivity

QVQLLESGGGLVQSGGSLRLSCAASGFIFYSYAMGGYRQAPGKERELVAAITEDGDSTYYADSVKWRFTISRDNAKNTVYLQMNSLNPEDTAGYYCNTDLTFNGTSGAYDYWGQGTQVTVSS
polyreactivity (PSR sort gate): low polyreactivity

QVQLLESGGRLVQAGGSLRLSCAPSGFIFISYALGWYRQAPGKERELDAAIDWRGGSSTYYADSVKGRFTISRDNAKNTVYFPMISLKPEDTAVYYCAAEGVTWYLWDFYDFYGYWGQGTQVTVSS
polyreactivity (PSR sort gate): high polyreactivity

QVQLLESGGRLVQAGGSLRLSCMASGSILGDRMSWYRQAPGKEHELVATIYDGGITYYADSMKGRFTISRDNAKNTVYLQMNSLRPEDTAVYYCGASFEGYRYHVYCGQGTQVTVSS
polyreactivity (PSR sort gate): low polyreactivity

QVQLLESRGGLVQAGGSLRLSCAASGRTIYTYAMGWYRQAPRTVRELVAAITYRGGNTYYADSVKGRFTISRDNAKYTVYLQMNSLKAEDTAVYDCIRRVAYLSGYSYDYWGQGTQVTVSS
polyreactivity (PSR sort gate): high polyreactivity

QVQLLESVGGLVQAGGSLRLSCAASGRIFGSNAMGWYRQAPGKERELVAAITRGGSTNYADSVKGRFTISRDNAKNTVYLQMNSLKPEDTAVYYCAVRWYRKYNYWGQGTQVTVSS
polyreactivity (PSR sort gate): high polyreactivity

QVQLLESVGGLVQAGGSLRLSCAASGRTFSRYAMGSYRQAPGKERELVATISSSGGTTYYADSVKGRFTISRDNAKNTVYLQMNSLKPEDTAVYYCNAESKKRTHASGYDYWGHGTQVTVSS
polyreactivity (PSR sort gate): low polyreactivity

QVQLLETGGGLVQAGGSLRLSCAASGLIFYYNVMGWYIQAPGKERELVASISYSSTRTYYADSVKGRFTISRDNAKNTVYLQMNSLKPEDTAVYYCNAVIRNSWIRGYWGQGTQVTVSS
polyreactivity (PSR sort gate): low polyreactivity

QVQLLETGGGLVQAGGSLRLSCAPSGSIFDSYAMGWYRQAPGKERELVATINTSGGSTYYADSVKGRFTIHDNAKNTVYLQMNSLKPEDTAVYYCNAGRWDYWQNNFGDYGYWGQGTQVTVSS
polyreactivity (PSR sort gate): low polyreactivity

QVQLLETGGGLVQAGGSLRLSFAASGSIFYRYSMVWYRQAPGKERELVAAISYSGGSTYYADSVKGRFTISRDNAKNTVYLQMNSLKPEDTAVYYCAKDYPPPISDYSRYYGYGYWGQGTQVTVSS
polyreactivity (PSR sort gate): low polyreactivity

QVQLLETGGGLVQAGRSLRLSCAASGFIFRANAMGWYRQAPGNERELVATISRSGGSTSYADSVKGRFTISRDNAKNTVYLQMNSLKPEDTAVYYCNKRTPYLRPILDYWGQGSQVTVSS
polyreactivity (PSR sort gate): high polyreactivity

QVQLLETGGGLVQAGVSLRLSSAASGRTFWTNGMGWYRQAPGKERELVASISTSGGRTYYADSVKGRFTISRDNSKNTVYLQMNSLKPEDTAVYYCAARALSHGARYDYWGQGTQVNVSS
polyreactivity (PSR sort gate): high polyreactivity

QVQLQDSGGGLVQAGGSLRLSCAASGTISDRAGMGWYRQAPAQNAIVATIDRGTNTNYADSVKGRFTISRDNAKNTVYLQMNSLKPEDTAVYNCAADGRYYIYLDYWGQGTQVTVSS
polyreactivity (PSR sort gate): low polyreactivity

QVQLQDSGGGLVQAGGSLRLSCAASGYIFGSGSMGWFRQAPGKERELVATINNGSSTYYADSVKGRFTISRDNAINTVYLQMNSLKPEDTAVYYCAAVRIRPLRYYYWGQGTQVTVSS
polyreactivity (PSR sort gate): high polyreactivity

QVQLQDSGVGLVQAGGSLRLSCAASGTISYRYRMGSYRQAPRKELELVAGISFGSITYNADSVKGRFTISRDNAKNTVYLQMNSLKPEDIAVYYCAVYQKSYRFFPYWGQGTQVTVSS
polyreactivity (PSR sort gate): high polyreactivity

QVQLQECGCGLVQAGCSLRLSCAASGTFSNSLKWLYCQAPGKEREFVATIGVGGSTNYADSVKGRFTISRDNAKNTVYLQMNSLKPEDTAVYYCAARLDTVTDYYYWGQGTQVTVSS
polyreactivity (PSR sort gate): low polyreactivity

QVQLQECGGALVQAGGSLRLSCAASGTFSNSEKWLYCQAPGKERELVSTIGVGGSTNYADSVKGRFTISRDNAKNTVYLQLNSLKPEDTAVYHCAAYGAASYFHYYRGQGTQVTVSS
polyreactivity (PSR sort gate): low polyreactivity
